Experimental data taken from patent US5543498A, “Peptides to overcome inhibition of nerve growth” (The General Hospital Corporation, priority 1995, dated 1996).
“Also recorded” adds a separate entry of the source. No end group written: not given here.

Key:
Go = Go (Homo sapiens, UniProt P09471); assay: GTPγ S binding to Go (nitrocellulose filtration assay); format: biochemical; conditions: for effect of mutant decapeptides on GTPγ S binding to Go: peptide 250 μM, binding without peptides = 100%; for effect on GTPγ S binding to Go, dose response: oxidized (performic acid) vs control peptide, same concentration range
Procedure: The GAP-43 1-10 peptide was oxidized using performic acid according to the procedures of A. Roher et al., Proc. Natl. Acad. Sci. USA 83:2662 (1986). Briefly, 10 mM peptide was incubated with formic acid solution containing 3% H2 O2 at 25° C. for one hour. The activation state of Go was determined in a nitrocellulose filtration assay as described by S. M. Strittmatter et al., Proc. Natl. Acad. Sci. USA 90:5327 (1993).
Both cysteine residues at positions 3 and 4 in the native GAP-43 1-10 peptide were replaced with methionine, tyrosine, aspartate, glutamate, lysine, arginine, serine, and tryptophan. These mutant peptides were tested for their ability to influence GTPγ S binding to Go.

[1] = tested on: Chick dorsal root ganglion (DRG) neurons; format: cell-based
Procedure: Chick DRGs from embryonic day 7 (E7) were explanted onto laminin-coated chamber slides in F12 medium with 10 ng/ml nerve growth factor and 10% fetal bovine serum. After 20 hours, peptide solutions or phosphate-buffered saline (PBS) in 1 mM DTT was added to the explants (225 μl) and the mixture incubated at 27° C. for one hour. BME, prepared following the procedure of J. A. Raper and J. P. Kapfhammer, Neuron 2:21 (1990), was added to the explants and incubated for 30 minutes. For each explant, all growth cones were scored as collapsed or fan-shaped (M. Igarashi et al., Science 259:77 (1993)).
In another series of experiments the GAP-43 1-10 peptide was added into the culture medium at 10^-8 M one hour prior to the addition of BME. After 30 minutes incubation with BME, the explant was fixed in glutaraldehyde and its growth cones were scored.
After exposing the PTX treated neurons to BME and the GAP-43 1-10, the amount of growth cone collapse was measured.
The procedure described in Example 2 was followed with the exception that one hour prior to the addition of BME (0.15 mg protein/ml) to the DRG culture medium, either the methionine or tyrosine mutant peptide was introduced at a concentration of 10^-4 M.

Chain of Go (P09471 whole entry): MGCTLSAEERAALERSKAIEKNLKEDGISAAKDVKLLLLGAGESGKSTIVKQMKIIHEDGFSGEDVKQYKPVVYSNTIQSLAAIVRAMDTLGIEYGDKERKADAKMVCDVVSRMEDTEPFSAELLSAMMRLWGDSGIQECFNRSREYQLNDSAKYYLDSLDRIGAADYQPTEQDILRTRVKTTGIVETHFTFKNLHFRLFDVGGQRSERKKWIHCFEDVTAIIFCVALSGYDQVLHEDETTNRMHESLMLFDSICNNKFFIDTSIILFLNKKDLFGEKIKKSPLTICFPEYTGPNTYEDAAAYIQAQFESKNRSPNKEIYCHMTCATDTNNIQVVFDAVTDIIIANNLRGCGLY

Substance: [3Y, 4Y]GAP43 (1-10) (MLYYMRRTKQ) [peptide-Y, GAP-43 1-10 peptide with both cysteines at positions 3 and 4 replaced with tyrosine]
- effect of mutant decapeptides on GTPγ S binding to Go (Go): attenuate GTPγ S binding to Go; also recorded: antagonist of G protein stimulation
- effect of mutant decapeptides on GTPγ S binding to Go (Go; listed as tyrosine): inhibits GTPγ S binding to Go
- shift of BME dose response: BME needed to cause 50% collapse ([1]; DRG, 10^-4 M peptide, relative to no peptide): about twice
- inhibition of growth cone collapse induced by BME ([1]; DRG, BME 0.15 mg protein/ml, peptide 10^-4 M one hour before BME): approximately 30%
- effect of the peptides by themselves on growth cones ([1]; doses used for the BME dose response (FIG. 3C)): do not have any evident effect by themselves

Substance: oxidized GAP-43 1-10 peptide: GAP-43 1-10 peptide oxidized using performic acid (MLCCMRRTKQ; also: oxidized using performic acid)
- effect on GTPγ S binding to Go, dose response (Go; listed as Oxidation of the GAP-43 1-10 N terminus): dose-dependent inhibition
- effect on GTPγ S binding to Go, dose response (Go; listed as Oxidation of the GAP-43 1-10 N-terminus): dose-dependent inhibition
- effect on GTPγ S binding to Go, dose response (Go; listed as oxidation of the peptide by performic acid): inhibitory for Go

Substance: pertussis toxin [PTX, reference compound]
- effect on growth cone collapse induced by BME ([1]; PTX 20 ng/ml, BME 0.075 mg/ml): do not inhibit the collapse induced by BME
- effect on GAP-43 1-10 peptide potentiation of BME-induced growth cone collapse ([1]; PTX 20 ng/ml, BME 0.075 mg/ml plus 10^-8 M GAP-43 1-10 peptide, listed as pertussis toxin): blocks
